Results from publication PMC6138676, “Skeletal Muscle Dystrophy mutant of lamin A alters the structure and dynamics of the Ig fold domain” (Scientific Reports, 2018).

Biological target: the molecule itself
Assay: SEC-MALS; 3 mg/ml protein; Superdex 200 Increase 10/300 equilibrated in 25 mM Tris-HCl pH 8.5, 250 mM NaCl; 20 °C; 30 µL injected, 0.6 mL/min

B1: Human lamin A Ig (428-552) (domain or fragment, UniProt P02545 428-552, looked up)
chain: SSFSQHARTSGRVAVEEVDEEGKFVRLRNKSNEDQSMGNWQIKRQNGDDPLLTYRFPPKFTLKAGQVVTIWAAGAGATHSPPTDLVWKAQNTWGCGNSLRTALINSTGEEVAMRKLVRSVTVVED
notes: Ig fold domain of human lamin A, residues 428-552, cloned into pQE-80L between BamHI and KpnI; For the NMR experiments the protein was 13C,15N-labelled; also called wild type Ig; Ig fold domain of lamin A; source: E. coli BL21 (DE3) pLysS, purified (His-Trap column)
stoichiometry N: 2
